The values that follow come from article PMC8992277 (ACS Omega, 2022).

This test has as its target T1, Human neuroglobin (human, UniProt Q9NPG2 1-151).
T1 sequence (looked up): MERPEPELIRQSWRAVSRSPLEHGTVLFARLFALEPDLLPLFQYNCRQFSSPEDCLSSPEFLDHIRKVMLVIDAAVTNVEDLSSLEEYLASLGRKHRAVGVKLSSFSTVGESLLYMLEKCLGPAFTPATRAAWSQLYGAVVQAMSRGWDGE
As to the kind of experiment: ITC. (Isothermal titration calorimetry measures the heat released or taken up as one component is titrated into another.)

B1: Human cytochrome c I81N variant (natural protein)
chain: not shown
modifications: heme c covalently linked to the peptide chain via two thioether bonds through the CXXCH motif
The term Kd denotes the free concentration of one partner at which half of the binding sites on the other are occupied at equilibrium, for simple one-to-one binding. The low end stands for a tighter complex, the high end for a looser complex. For B1, the Ka came to 5300 M⁻¹; the dissociation constant (Kd) was determined as 189 µM; the “dH, fold of that of WT hCyt c binding to Ngb” value is approximately 6 fold.
